± gives the standard deviation.
Assay: protein stability index of a GFP-peptide fusion (GPS, HEK-293T) (PSI 1-6); higher = more stable
Conditions: c terminus: a fixed tail appended
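Note: 24-mer peptide tiles fused after GFP, lentivirally expressed, FACS-sorted into six equal bins by GFP/DsRed ratio, decoded by Illumina sequencing, PSI is the read-weighted mean bin number.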

| Sequence | protein stability index (treatment: DMSO) | protein stability index (treatment: MLN4924 1 uM, 8 h) |
| --- | --- | --- |
| GLNDALDNLRKVVPCYSKTQKLSK [NEUROD6] | 3.25 ± 0.15 | 3.42 ± 0.18 |
| DDHLQQPLQNQKILKRTGQRYEHG [ZNF649] | 4.84 ± 0.085 | 4.97 ± 0.23 |
| IFCRDTQTVFQKKNLQQTTNTTST [IQUB] | 3.32 ± 0.34 | 3.66 ± 0.26 |
| TKFEVRLLRDPADASEAHESSSRG [CHGB] | 4.61 ± 0.26 | 4.64 ± 0.12 |
| AQEKAADVQARLNRSDHGIFHSRT [FCHSD1] | 4.19 ± 0.072 | 4.37 ± 0.48 |
| KEIESQGSIPGFLISSGMSSHKQG [TAF7L] | 4.42 ± 0.2 | 4.11 ± 0.48 |
| LPLMDLCRRSIRSALGRQRLQDIS [SPSB4] | 2.62 ± 0.12 | 2.53 ± 0.34 |
| AKVKGHRSQKHKERIRLLRQKREA [C18orf25] | 4.07 ± 0.57 | 4.38 ± 0.16 |
| ANAAKHTQDSARVNPQDGTNTLTR [EHMT1] | 5.13 ± 0.18 | 5.19 ± 0.14 |
| GVWAPPAPGFGEDVPNRLVDNIDM [BEX5] | 4.52 ± 0.57 | 4.25 ± 0.55 |
| LAPVRQQELASLLRTYLARLPWAG [PBXIP1] | 2.22 ± 0.28 | 2.12 ± 0.27 |
| ALIPYVLNPSKLMEKEINGSKVTC [ATL3] | 2.13 ± 0.2 | 2.2 ± 0.39 |
| SKEDKDLDSSEGSSQEDEDLGLSE [SPANXN3] | 5.57 ± 0.33 | 5.62 ± 0.28 |
| LGQNDTGFSCDGTANTFRVMFKEP [BTBD1] | 3.36 ± 0.2 | 3.29 ± 0.31 |
| VAETSGETIQGFWLLTKIDHWNNE [TPRG1] | 2.11 ± 0.36 | 2.31 ± 0.26 |
| HHLPLPDNWKSQVEPETRAVIRWM [CPN1] | 2.62 ± 0.34 | 2.77 ± 0.44 |
| MSVDPACPQSLPCFEASDCKESSP [NANOGP8] | 5.44 ± 0.23 | 5.41 ± 0.33 |
| NTEVVQVAAGRTQKAGVTRSGRLI [NEK8] | 4.32 ± 0.21 | 4.4 ± 0.16 |
| PTIDTGYDSQPQDVLGIRQLERPL [TRAF3IP2] | 4.2 ± 0.28 | 4.4 ± 0.37 |
| DNAEAAFSDDEEDLNSKGKKREFR [INTS3] | 5.51 ± 0.16 | 5.47 ± 0.2 |
| TREKAKFSDGEKCRREAFRRLGNG [PHTF1] | 3.65 ± 0.17 | 3.62 ± 0.39 |
| EAECEKSSATTYFWYREALDISDS [SLC6A17] | 3.94 ± 0.36 | 3.83 ± 0.29 |
| DSSEKELEPEAAEEALENGPKESL [ACBD3] | 5.62 ± 0.24 | 5.55 ± 0.22 |

| Sequence | protein stability index (treatment: DMSO) | protein stability index (treatment: MLN4924 1 uM, 8 h) |
| --- | --- | --- |
| SGACGAFVHGLEDEMYEVRIAAVE [INTS4] | 2.71 ± 0.46 | 2.73 ± 0.5 |
| TLGEQGLPHQSHRQRSSLAKINIV [SCNN1D] | 3.27 ± 0.28 | 3.33 ± 0.1 |
| RCFYTRKDVRRHLVVHTGCKDFLC [PLAGL1] | 2.11 ± 0.47 | 2.19 ± 0.39 |
| CGSARPKPYDPPGEKMVAAKVKGE [ATF4] | 4.57 ± 0.17 | 4.82 ± 0.33 |
| GQSVTAVGRIIAPLLSGVAQEVSP [MFSD9] | 3.39 ± 0.19 | 3.44 ± 0.19 |
| FKLADPDEVARRWGKRKNKPKMNY [ETS2] | 3.48 ± 0.48 | 3.67 ± 0.13 |
| MAAGSEPESVEASPVVVEKSNSYP [KMT2E] | 5.3 ± 0.11 | 5.19 ± 0.24 |
| GNFDWEAIFDAGTLGGELGALEAL [FOXJ1] | 4.15 ± 0.26 | 4.17 ± 0.34 |
| EEENAQLRGALQQGEAFQRALESE [PBXIP1] | 5.43 ± 0.32 | 5.39 ± 0.49 |
| MASNERDAISWYQKKIGAYDQQIW [PHTF1] | 2.51 ± 0.39 | 2.55 ± 0.16 |
| LSGGLGAGSCRLGSAGGLGSTLGG [KRT17] | 2.47 ± 0.23 | 2.37 ± 0.28 |
| RKDMIAEKLAPSEITEELPSSQLM [ZNF396] | 4.98 ± 0.16 | 4.86 ± 0.27 |
| WERVHLIVAGGYDERVLENVEHYQ [ALG2] | 2.33 ± 0.19 | 2.48 ± 0.3 |
| RRMFSSLFQFSNCSQGQQLATFSS [CCDC3] | 2.31 ± 0.2 | 2.34 ± 0.98 |
| NSAEACQYVITHAKVNILLVENDQ [ACSBG2] | 2.18 ± 0.52 | 2.62 ± 0.25 |
| YSYVVSRPQPRGLLGWGYYLIMLP [FAF2] | 2.89 ± 0.57 | 2.16 ± 0.37 |
| SNLETIFRIIDSDHSGFISLDEFR [PPEF2] | 2.52 ± 0.24 | 2.73 ± 0.36 |
| KAGSSEWLAVDGLVSPSNNSKEDA [ATF4] | 5.13 ± 0.19 | 5.14 ± 0.25 |
| LLYLLHILLLDGAAWLTLWVFGTS [FADS1] | 3.38 ± 0.24 | 2.49 ± 0.25 |
| LRGKSIKRAPGEETEKEEEEEDRE [NEUROD6] | 5.66 ± 0.45 | 5.67 ± 0.3 |
| KPKTTNIELQGVPNDEVHPLLGVK [RBBP5] | 4.65 ± 0.7 | 4.75 ± 0.34 |
| PTHPSSTHALAEWASRREAFAQRP [CDC25B] | 4 ± 0.26 | 3.91 ± 0.3 |
| LASTSKPVVKLLHNRSNNKYSYTS [KCTD13] | 3.08 ± 0.2 | 3.27 ± 0.28 |

| Sequence | protein stability index (treatment: DMSO) | protein stability index (treatment: MLN4924 1 uM, 8 h) |
| --- | --- | --- |
| IETEPTVHHLPLSTEKVVQETVLV [EPB41L3] | 4 ± 0.11 | 3.84 ± 0.28 |
| GIDLAVYETLKNAWLQHYAVNSAD [SLC25A25] | 2.84 ± 0.44 | 2.4 ± 0.33 |
| FVLSCSYDGLDCQARQFRTFHHPT [SCNN1D] | 2.62 ± 0.74 | 2.63 ± 0.58 |
| SQAHSTLKLANHQRPVSRQVTCLR [TRAF3IP2] | 3.5 ± 0.21 | 3.61 ± 0.44 |
| GGRGVSTCSTRFVSGGSAGGYGGG [KRT13] | 3.77 ± 0.41 | 3.97 ± 0.15 |
| SLQDASRGDPAHAGLAELGHRLAQ [PBXIP1] | 4.33 ± 0.34 | 4.38 ± 0.27 |
| RALLRRFPRMLLVDRLPGLQGALD [ZSWIM9] | 2.49 ± 0.25 | 2.52 ± 0.24 |
| DDDKYKITLKYPHYFPVMKKCCIP [NLN] | 2.9 ± 0.23 | 2.49 ± 0.47 |
| GLHRRPGAGHCSASPGPAAPTARM | 3.76 ± 0.31 | 3.64 ± 0.31 |
| GATTLGDMIYVSGGFDGSRRHTSM [KLHL12] | 2.88 ± 0.38 | 3.02 ± 0.5 |
| PPFMIALACLHVACVVQQKDARQW [CCNC] | 3.3 ± 0.18 | 3.08 ± 0.35 |
| RPFDCPVCNKKFKMKHHLTEHMKT [ZBTB22] | 2.77 ± 0.23 | 3.47 ± 0.53 |
| AMPDPAGPDGHLPAVATLCDLFDR [ESRRA] | 4.27 ± 0.23 | 4.4 ± 0.23 |
| YDGMLSDVQSMPKTGILILILSII [MAGEA10] | 2.36 ± 0.78 | 2.12 ± 0.48 |
| PTPKCLRLCFFPFVENGHSESSGQ [CFHR2] | 2.54 ± 0.093 | 2.72 ± 0.24 |
| EVWGNALLRPPVAAFVRAQADLLA [DNAAF3] | 2.39 ± 0.31 | 2.02 ± 0.37 |
| SESRGSSGRVKRERDREREPEAAS [USP39] | 5.53 ± 0.24 | 5.59 ± 0.19 |
| FTVNPKPRVEYIDRPRCCLRGKEC [BTBD1] | 2.92 ± 0.11 | 3.23 ± 0.35 |
| CNGILTEKMEEEEQTCDPDSSLHW [ZNF396] | 5.13 ± 0.18 | 5.01 ± 0.28 |
| GSSETNLLQHLLEACGRCEEVPEA [PYCR3] | 3.74 ± 0.19 | 4.19 ± 0.14 |
| ETVYAAYLPKNTHPFLYLSLEISP [MLH1] | 2.82 ± 0.51 | – |
| DPLFGMCEKFLQEVDFFQRYFIAD [INTS4] | 2.6 ± 0.36 | 2.21 ± 0.35 |
| PALCFAAAIFSLFFVPLSYLLMVT [TMEM175] | 3.03 ± 0.093 | 3.31 ± 0.21 |

| Sequence | protein stability index (treatment: DMSO) | protein stability index (treatment: MLN4924 1 uM, 8 h) |
| --- | --- | --- |
| ETQKLLCKNGETLLGAVNFFVSSI [ARFIP2] | 2.49 ± 0.52 | 2.25 ± 0.36 |
| TSSSLGDKSEYLEMEEGVKESLCA [KCNA4] | 5.1 ± 0.14 | 4.77 ± 0.41 |
| QRPRFITSGGSNIIYVASNHFVWR [VPS39] | 2.12 ± 0.23 | 2.49 ± 0.25 |
| GARQQQVTTYLHKDYNNLWIIKKH [POMT2] | 2.49 ± 0.27 | 2.58 ± 0.35 |
| EFFRESVNRFGTYPALASKNGKKW [ACSBG2] | 2.87 ± 0.45 | 3.2 ± 0.28 |
| KIKDEVHPEVKCVGSVALTALVTV [C8orf76] | 2.61 ± 0.26 | 2.11 ± 0.85 |
| ESTLYPNPYHQPYISRKYFATRPG [TPRG1] | 2.76 ± 0.43 | 3.03 ± 0.088 |
| NLTIRAGALTGKENNMLQPETHIF [DMRTC1] | 2.95 ± 0.21 | 3.17 ± 0.39 |
| PQGDEEDIASRYPTLWTEQVKSRQ [SMOC2] | 4.55 ± 0.17 | 4.52 ± 0.091 |
| PRNGDQWHEIRQGRLPRIPQVLSQ [WEE1] | 3.12 ± 0.17 | 3.32 ± 0.5 |
| AHEIERLQMEMKEDDVSFLMKHKS [TRIM35] | 4.83 ± 0.24 | 4.67 ± 0.25 |
| RDSYSSSSRGAPRGGGRGGSRSDR [RBMX] | 5.41 ± 0.24 | 5.44 ± 0.17 |
| YHNSPAYLAYINAKSRAEAALEEE [SMARCE1] | 2.53 ± 0.54 | 4.01 ± 0.38 |
| LSSWELEAWYEDLQEVLSSDENGG [DDIT3] | 3.19 ± 0.39 | 3.29 ± 0.34 |
| LAAPSLHVKEQLPCAGLNCQALDA [TLE6] | 3.92 ± 0.25 | 3.97 ± 0.28 |
| PRGARCSNGFPERDPPRPGPSRPA [GCH1] | 4.71 ± 0.064 | 4.47 ± 0.38 |
| LLECYIQYHHSKIRNRGYNLIYRS [TMEM192] | 2.71 ± 0.5 | 2.73 ± 0.6 |
| EESEKAMQERVQRLEAARLSLEEE [LRRC45] | 5.48 ± 0.2 | 5.57 ± 0.091 |
| QNNENNISCVERGWSTPPKCRSTI [CFHR2] | 3.97 ± 0.29 | 4.11 ± 0.34 |
| DLSKPPCRKAKEIRKERKRLKLMQ [ATE1] | 3.55 ± 0.13 | 3.64 ± 0.35 |
| SKGWGRNYASIIRRDCMWSGFSAR [MYCL] | 2.35 ± 0.39 | 2.38 ± 0.31 |

From the supplement of paper PMC10567573
